In the nanobody polyreactivity screen of Harvey et al. (2022):

Assay: yeast display, Sf9 membrane polyspecificity reagent, FACS + sequencing; frameworks hold sequencing errors
How it was run: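 Polyreactivity labels are assigned by the sorting gate from which each nanobody was recovered. The gates were low and high (top ~1%), set on anti-HA fluorescence for expression and streptavidin fluorescence for reagent binding. Before sorting, galactose-induced (36–48 hours) yeast display cells were stained for 1 hour at 4 °C with 10% biotinylated, detergent-solubilized Sf9 membrane reagent.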

Row | Sequence | polyreactivity (PSR sort gate)
1 | QVQLVESGGGLVQAGGSLRLSCAASGLTFVDNALGWYRQAPGKDRELVAAISYNGGTTYYADSVKGRFTISRDNAKNTVYLQIISLKPEDTAVFYCAADISVGRYGDMDYWGQGTQVTVSS | low polyreactivity
2 | QVQLVESGGGLVQAGGSLRLSCAASGLTFVKNVMGWYRQAPGKERELVAAISRRGGSTYYADSVKGRFTISRDNAKNTVYLQMNSLKPEDTAVYSCNAVLNHLSYIYPAVGYWGQGTQVTVSS | high polyreactivity
3 | QVQLVESGGGLVQAGGSLRLSCAASGLTFVQYAMGWYRQAPGKERELVATISKSGGFTYYADSVKGRFTISRDNATNTVYLQMNSLKPEDTAVYYCAAAWYYSSRGFHASWGHDYWGQGTQVTVSS | low polyreactivity
4 | QVQLVESGGGLVQAGGSLRLSCAASGLTFVRYAMGWYRQAPGKERELVAVISYSGARTYYADSVKGRFTISRDNAKNTVYLQMNSLKPEDTAVYYCAARQYTTGKYDSWGQGTQVTVSS | high polyreactivity
5 | QVQLVESGGGLVQAGGSLRLSCAASGLTFVYYAMGWYRQAPGKERELVAVISSSGGSTYYADSVKGRFTISRDNAKNTVYLQMNSLKPEDTAVYYCAAPRQVYYQTDNDYWGQGTQVTVSS | high polyreactivity
6 | QVQLVESGGGLVQAGGSLRLSCAASGLTFVYYTRGWYRQAPGKERELVATITFTGGNTYYADSVKGRFTISRDNAKNTVYLQMNCLKPEDTAVYYCAKDSGPYKAEYDYGGQGTQVTVSS | low polyreactivity
7 | QVQLVESGGGLVQAGGSLRLSCAASGLTFWEYAMGWYRQAPGKERELVAAITWGGNTYYADSVKGRFTISRDNAKNTVYLQMNSLKPEDTAVYYCAARGYYLTGGFRRYYYWGQGTQVTVSS | high polyreactivity
8 | QVQLVESGGGLVQAGGSLRLSCAASGLTFWPYVMGWYRQAPGKERELVAAIDDTGITYYADSVKGRFTISRDNEKNTVYLQMNTLKPEDTAVYYCATDWDYYFPWIYPSDAGPEDGYCGQGTQVTVSS | low polyreactivity
9 | QVQLVESGGGLVQAGGSLRLSCAASGLTFWRYTMGWYRPAPGKERELVAVITYRGGSTYYADSVKGRFTISRDYAKNTVYLQMNSLKPEDTAVYYCAAGLSTYGLTYDYWGQGTQVTVSS | high polyreactivity
10 | QVQLVESGGGLVQAGGSLRLSCAASGLTFWRYVMGWYRQAPGKERELVATISIGGSTNYADSVKGRVTISRDNAKNTVYLQMNSLKPEDTAVYYCAAKFRGDVFPYYYWGQGTQVTVSS | high polyreactivity
11 | QVQLVESGGGLVQAGGSLRLSCAASGLTFWVYTMGWYRQAPGKERELVAAITRGGSTTYADSVKGRFTISRDNAKNSVYLQMNSLQPEDTAVYYCNAVYKYSVVYKLDYWGQGTQVTVSS | high polyreactivity
12 | QVQLVESGGGLVQAGGSLRLSCAASGLTFWYYAMGRYRHAPRKERELVATITWSGRTYYADSVKGRFTISRDNAKNTVYLQMNSLKTEDTAVYYCNAVKGRLQYSYDYWGQGTQVTVSS | high polyreactivity
13 | QVQLVESGGGLVQAGGSLRLSCAASGLTFWYYAMGWYRQAPGKERELVAAITSVGSTYYADSVKGRFTISRDNAKNTVYLQMNSLKPEDTAVYYCAAGVPPLYFRRGGDYWGQGTQGTVSS | high polyreactivity
14 | QVQLVESGGGLVQAGGSLRLSCAASGLTFYANAMGWYRQAPGKERELVAAITSSGGSTYYADSVKGRFTISRDNAKNTVYLQMNSLKPDDTAVYYCNAYFRPRYGYWGQGTQVTVSS | high polyreactivity
15 | QVQLVESGGGLVQAGGSLRLSCAASGLTFYDYAKGWYRQAPGKELELVADIDFNGGSTSYADSVKGRFTISRDNAKNTVYLQMNSLKPEDTAVYYCAVDFIYWFHSRSSYIYDYWGQGSQVTVSS | low polyreactivity
16 | QVQLVESGGGLVQAGGSLRLSCAASGLTFYEYAMGWYRQAPGKERELVAAISWRGDSTHYADSVKGRFTISRDNAKNTVYLQMNSLKPEDTAVYYCNTRRLHGWLYGYEYWGQGTQVTVSS | low polyreactivity
17 | QVQLVESGGGLVQAGGSLRLSCAASGLTFYFNAMVWYRQAPVKERQLVAAIDWGGGSTYYADSVKGRFTISRDNAKNTVYLQMNSLNPEDTAVYYCGARGYYYNYDVNYWVQGTQVTVSS | low polyreactivity
18 | QVQLVESGGGLVQAGGSLRLSCAASGLTFYGYGMGWYRQAPGKERELVASITSGGNTYYADSVKGRFTISRDNAKNTVYLQMNSLKPEDTAVYYCNADDGGPGVVLPTKEYDYWGQGTQVTVSS | low polyreactivity
19 | QVQLVESGGGLVQAGGSLRLSCAASGLTFYKYAMGWYRQAPGKERELVAAITSTGGSTYYADSVKGRFTISRDNAKNTVYLQMNSLKPEDTAVYYCAAQWYTALYYWGQGTQVTVSS | high polyreactivity
20 | QVQLVESGGGLVQAGGSLRLSCAASGLTFYLYAMGWYRPAPGKERELVAGISYRGASTYYADSVKGRFTISRDNAKNTVYLQMNSLKPEDTAVYYCAADDTTPNGVYWGQGTQVTVSS | low polyreactivity
21 | QVQLVESGGGLVQAGGSLRLSCAASGLTFYLYVMGWYRQAPGKERELVAAISRRGGTTYYADSVKGRFTISRDNAKNTVYLQMNSLKPEDTAVYYCAADFFAGTQRTFDYWGQGTQVTVSS | high polyreactivity
22 | QVQLVESGGGLVQAGGSLRLSCAASGLTFYLYVMGWYRQAPWKERELVAAISRRGGSTYYADSVKGRFTISRDNAKNTVYLQMNSLKPEDTAVYYCAARVYGTYRGIQYGYWGQGTQVTVSS | high polyreactivity

Row | Sequence | polyreactivity (PSR sort gate)
23 | QVQLVESGGGLVQAGGSLRLSCAASGLTFYNARGWYRQAPGKERELVAAISGTVSRTYYADSVKGRFTISRDNAKNTVYLEMNSLKPEDTAVYYCAVRWYGKYSGVRYYYWGQGTQVNVSS | high polyreactivity
24 | QVQLVESGGGLVQAGGSLRLSCAASGLTFYQNAMGWYRQAPGKERELVAAISSSGGRTYYADSVKGRFTISRDNAKNTVYLQMNSLKPEDTAVYYCAAYRRYRNWFNYWGQGTQVTVSS | high polyreactivity
25 | QVQLVESGGGLVQAGGSLRLSCAASGLTFYSYAMGWYRQAPGKERELVAAISSSGGNTYYADSVKGRFTISRDNAKNTVYLQMNSLKPEDTAVYYCNVYHWSRVFAIDYYWGQATQVTVSS | high polyreactivity
26 | QVQLVESGGGLVQAGGSLRLSCAASGLTFYTYAMGWYRQAPGKERELVAAISGGGRTHYADSVKGRFTISRDNAKNTVYLQMNSLKPEDTAVYYCAKDKGFLVRYDDLHDYDYWGQGTQVTVSS | low polyreactivity
27 | QVQLVESGGGLVQAGGSLRLSCAASGLTFYTYAMGWYRQAPGKERELVAAISGRGSRTFYADSVKGRFTISRDNAKNTVYLQMNSLKPEDTAVYYCAARVWSSFTGAYDYWGQGTQVTVSS | high polyreactivity
28 | QVQLVESGGGLVQAGGSLRLSCAASGLTFYVYAMGWYRQAPGKEREFVAAITRSGGSTHFADSVKGGFTISRDNAKYTVYLQMNSLKPEDTAVYYGAARAIRYYIRYYYWGQGTQVTVSS | high polyreactivity
29 | QVQLVESGGGLVQAGGSLRLSCAASGLTFYYNTMGWYRQAPGKERELVAAINWSGGRTYYADSVKGRFTISRDNAKNTVYLQMNSLKPEDTAVYYCNAASSRALGYAYDYWGQGTQVTVSS | high polyreactivity
30 | QVQLVESGGGLVQAGGSLRLSCAASGLTFYYYAMGWYRQAPGKEREFVAAISRSGGTTYYADSVKGRFTISRDNAKNTVYLQMISLKPEDTAVYYCNAQWWRYWPSQVIFDYWGQGTQVTVSS | high polyreactivity
31 | QVQLVESGGGLVQAGGSLRLSCAASGLTFYYYAMGWYRQAPGKERELVAAITSGGITYYADSVKGRFTISRDNEKNTVYLQMNSLKPEDTAVYYCAARYHIDTLFYGSRYDYWGQGTQVTVSS | high polyreactivity
32 | QVQLVESGGGLVQAGGSLRLSCAASGLTFYYYAMGWYRQAPGKERELVATISGSGGNTYYADSVKGRFTISRDNAKNTVYLQMNSLKPEDTAVYYCNARYRWWLYYSRDRVYCWGQGTQVTVSS | high polyreactivity
33 | QVQLVESGGGLVQAGGSLRLSCAASGLTFYYYAMGWYRQAPGKERELVATISSGGGRTYADSVKGRFTISRDNAKNTVYLQMNSLKPEDTAVYYCAVRNTKSYWFGYWGQGTQVTVSS | high polyreactivity
34 | QVQLVESGGGLVQAGGSLRLSCAASGLTIASYVMGWYRQAPGKERELVAAISSSGDSTYYADSVKGRFTISRDNAKNTVYLQMNSLKPEDTAVYYCAAKDSVWGQGTQVTVSS | low polyreactivity
35 | QVQLVESGGGLVQAGGSLRLSCAASGLTIQLYAMGWYRQAPGKERELVAAISGSGGRTYYADSVKGRFTISRDNAKNTVYLQMNSLKPEDTAVYYCAARPGSGRSYTSDYWGQGTEVTVSS | high polyreactivity
36 | QVQLVESGGGLVQAGGSLRLSCAASGLTIVGNAMGWYRQAPGKERELVASISSRGGSTYYADSVKGRFTISLDNSKNTVYLQMNSLNPEDTAVYYCAAGNSYGVRLLYQIVTRYYWGQGTQVTVSS | high polyreactivity
37 | QVQLVESGGGLVQAGGSLRLSCAASGLTIWRHAMGWYRQAPGKEREFVATISQNGGRTYYADSVKGRFTISRDNAKNTVYLQMNSLKPEDTAVYYCAADDWRWRYDYWGQGTQVTVSS | high polyreactivity
38 | QVQLVESGGGLVQAGGSLRLSCAASGLTIWRYAMGWYRQAPGKETEFVASISQNGGRTDYADSVKGRFTISRDNAKNTVYLQMNSLKPEDTAVYYCAARRYYGVYYAFYFWRQGTQVTVSS | high polyreactivity
39 | QVQLVESGGGLVQAGGSLRLSCAASGLTLAPYAMGWYRQAPGKERELVAAITFSGGSTYYADSVKGRLSISRDNAKNTVYLQMNSLKPEDTAVYYCARDTWAYKNGYPYYSWGQGTQVTVSS | low polyreactivity
40 | QVQLVESGGGLVQAGGSLRLSCAASGLTLAWYAMGWYRQAPGKERELVAAISWSGDSTYYADSVKGRFTISRDNAKNTVYLQMNSLKPEDTAVYYCATRVYGGYGYWGQGTQVTVSS | high polyreactivity
41 | QVQLVESGGGLVQAGGSLRLSCAASGLTLDYYAMGWSRQGPGKERELVAVIRGRSGSTYYADSVKGRFTISRDNAKNTDYLQMNSLKPEDTAVYYGARVTTYGDYYWGQGTQVTVSS | high polyreactivity
42 | QVQLVESGGGLVQAGGSLRLSCAASGLTLFRYAMGWYRQAPGKERELVAAIDYGGGTYYADSVKGRFTISRDNAKNTVYLQMNSLKPEDTAVYYCAVEPEYKYYEGDYWGQGTQVTVSS | low polyreactivity
43 | QVQLVESGGGLVQAGGSLRLSCAASGLTLKYYAMGWYRQAPGKERELVAAITYSGGSTYYADSVKGRFTFSRDNAKNTVYLQMNSLIPEDTAVFYCNAGPSVTSGYDYDYWGQGTQVTVSS | low polyreactivity
